Key:
Assay in all cases: EC50 of free RNA motif oligo competing protein binding to immobilised probe
LSM6 = molecular target: T1, LSM6 (UniProt P62312)
T1 sequence: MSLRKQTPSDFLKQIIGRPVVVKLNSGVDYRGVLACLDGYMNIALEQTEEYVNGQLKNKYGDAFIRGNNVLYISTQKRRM
Outline: (§1)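 Over three biological replicates and two independent experiments, proteins captured on NHS-Sepharose beads carrying 5′-amino-C6 RNA oligos were quantified by label-free LC-MS/MS and normalised to the control. Capture lasted 30 min at 4°C and followed a 1 h pre-incubation at 4°C of HEK293-FT lysate (2.5 mg protein/well) with the same oligos in free form (0 nM to 30 μM). EC50 was taken from a four-parameter log-logistic fit, and Kd was EC50 corrected by a protein-dependent depletion factor.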

TFIP11 = molecular target: T2, TFIP11 (UniProt Q9UBB9)
T2 sequence: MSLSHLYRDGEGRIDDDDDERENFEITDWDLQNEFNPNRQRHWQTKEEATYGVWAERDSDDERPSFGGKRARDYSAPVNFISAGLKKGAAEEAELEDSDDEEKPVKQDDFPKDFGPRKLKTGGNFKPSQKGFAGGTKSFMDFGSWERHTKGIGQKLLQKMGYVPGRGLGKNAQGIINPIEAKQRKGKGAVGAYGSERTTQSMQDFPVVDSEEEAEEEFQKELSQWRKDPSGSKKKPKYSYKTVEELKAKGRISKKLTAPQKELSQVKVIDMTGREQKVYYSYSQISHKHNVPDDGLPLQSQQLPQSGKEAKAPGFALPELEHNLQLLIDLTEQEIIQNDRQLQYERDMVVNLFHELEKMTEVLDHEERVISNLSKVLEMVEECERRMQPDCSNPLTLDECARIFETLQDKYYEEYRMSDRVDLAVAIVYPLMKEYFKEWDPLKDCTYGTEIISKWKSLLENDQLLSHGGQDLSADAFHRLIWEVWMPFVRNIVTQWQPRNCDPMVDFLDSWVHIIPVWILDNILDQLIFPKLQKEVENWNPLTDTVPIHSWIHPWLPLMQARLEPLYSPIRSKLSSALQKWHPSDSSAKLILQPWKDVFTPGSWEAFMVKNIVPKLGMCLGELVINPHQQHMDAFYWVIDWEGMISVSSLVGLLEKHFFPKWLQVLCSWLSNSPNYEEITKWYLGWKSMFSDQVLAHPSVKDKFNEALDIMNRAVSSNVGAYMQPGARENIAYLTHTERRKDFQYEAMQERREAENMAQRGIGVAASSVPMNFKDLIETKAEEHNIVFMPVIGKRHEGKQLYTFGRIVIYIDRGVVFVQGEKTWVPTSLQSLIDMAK
Outline: as §1

SRSF3 = molecular target: T3, SRSF3 (UniProt P84103)
T3 sequence: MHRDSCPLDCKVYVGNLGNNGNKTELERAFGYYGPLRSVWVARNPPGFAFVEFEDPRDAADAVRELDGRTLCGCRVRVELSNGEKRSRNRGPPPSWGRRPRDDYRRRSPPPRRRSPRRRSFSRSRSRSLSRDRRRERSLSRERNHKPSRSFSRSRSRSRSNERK
Outline: as §1

RBM4 = molecular target: T4, RBM4 (UniProt Q9BWF3)
T4 sequence: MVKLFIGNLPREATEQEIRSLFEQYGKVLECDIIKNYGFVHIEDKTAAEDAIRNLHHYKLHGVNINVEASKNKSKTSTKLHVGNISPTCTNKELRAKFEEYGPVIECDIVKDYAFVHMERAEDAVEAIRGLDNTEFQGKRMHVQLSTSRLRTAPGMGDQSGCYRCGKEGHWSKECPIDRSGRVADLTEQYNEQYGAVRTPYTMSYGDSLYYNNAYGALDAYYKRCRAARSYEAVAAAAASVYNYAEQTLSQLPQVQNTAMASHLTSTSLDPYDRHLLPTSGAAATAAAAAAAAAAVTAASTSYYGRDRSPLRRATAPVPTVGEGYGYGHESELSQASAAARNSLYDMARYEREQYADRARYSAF
Outline: as §1

ZNF830 = molecular target: T5, ZNF830 (UniProt Q96NB3)
T5 sequence: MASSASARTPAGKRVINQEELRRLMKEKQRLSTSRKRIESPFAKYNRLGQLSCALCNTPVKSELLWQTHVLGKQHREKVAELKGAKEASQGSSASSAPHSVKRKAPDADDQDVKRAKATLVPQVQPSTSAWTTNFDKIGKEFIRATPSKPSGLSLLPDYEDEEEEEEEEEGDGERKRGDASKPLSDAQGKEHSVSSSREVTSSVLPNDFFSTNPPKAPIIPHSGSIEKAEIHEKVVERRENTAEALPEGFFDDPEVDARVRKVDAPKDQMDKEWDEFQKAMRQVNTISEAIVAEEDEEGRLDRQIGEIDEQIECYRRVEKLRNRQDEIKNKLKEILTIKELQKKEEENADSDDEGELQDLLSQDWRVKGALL
Outline: as §1

AAUAAA
EC50 (LSM6): 0.797 µM | EC50 (TFIP11): 2.35 µM | EC50 (SRSF3): 3.03 µM | EC50 (RBM4): 4.16 µM | EC50 (ZNF830): 1.03 µM

CUGUCCU
EC50 (SRSF3): 2.62 µM | EC50 (RBM4): 0.371 µM

UAUUUAU
EC50 (LSM6): 0.447 µM | EC50 (TFIP11): 2.39 µM | EC50 (ZNF830): 0.378 µM

— the supplement of paper PMC6379048
